This passage reports immuno-response in vaccinated patients in vivo (IFN-g ELISPOT, +/- ICS) (out of 19 patients) results from patent US20200078439A1.

In this experiment the target is HLA-DR molecules of the vaccinated patients. Description: cell-based or functional assay.

Take TLGEFLKLDRERAKN [BIR-002 (Survivin 97-111: …)]: the immuno-response in vaccinated patients in vivo (IFN-g ELISPOT, +/- ICS) (out of 19 patients) was determined as 16.
